The values that follow are results of earlier work, collected in PMC8100458.

What is called pKi is the Ki on a negative log10 scale, so that one unit is a factor of ten. As usually defined, the pKd is −log10 of the Kd, conventionally taken in molar units.

pKd, pKi: −log10 of the molar value.

In data set [1] the target is Asef peptide 179-193 (Homo sapiens). The data set is described as follows: FP competition.
In data set [2] the target is Asef peptide 181-192 (Homo sapiens). As to the kind of experiment: FP competition.
Data set [3] addresses Asef peptide 183-190 (Homo sapiens). The data set is described as follows: FP competition.
For data set [4], the target named is Asef peptide 187-192 (Homo sapiens). As to the kind of experiment: FP competition.
Another data set addresses Asef (Homo sapiens) (UniProt Q9NR80). The data set is described as follows: ITC. On the technique in general: Isothermal titration calorimetry measures the heat released or taken up as one component is titrated into another.
Sequence of UniProt Q9NR80 (Q9NR80 whole entry): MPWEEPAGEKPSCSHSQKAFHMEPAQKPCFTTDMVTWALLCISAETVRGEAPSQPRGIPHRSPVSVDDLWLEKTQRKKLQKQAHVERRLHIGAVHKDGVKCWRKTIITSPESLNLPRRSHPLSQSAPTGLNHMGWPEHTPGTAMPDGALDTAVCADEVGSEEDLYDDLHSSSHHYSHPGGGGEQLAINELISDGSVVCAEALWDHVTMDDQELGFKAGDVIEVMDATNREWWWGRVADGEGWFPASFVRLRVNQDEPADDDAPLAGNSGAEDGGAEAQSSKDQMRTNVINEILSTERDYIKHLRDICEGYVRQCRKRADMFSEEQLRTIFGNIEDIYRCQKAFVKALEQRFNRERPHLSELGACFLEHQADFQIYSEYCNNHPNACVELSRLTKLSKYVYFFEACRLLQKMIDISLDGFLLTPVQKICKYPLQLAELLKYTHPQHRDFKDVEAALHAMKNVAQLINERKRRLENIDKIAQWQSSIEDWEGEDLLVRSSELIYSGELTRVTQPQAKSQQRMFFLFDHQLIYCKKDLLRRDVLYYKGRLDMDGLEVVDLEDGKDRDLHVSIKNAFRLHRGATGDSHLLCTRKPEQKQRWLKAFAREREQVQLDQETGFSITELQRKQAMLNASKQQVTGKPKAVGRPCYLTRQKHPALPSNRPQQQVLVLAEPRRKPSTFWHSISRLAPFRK

Regarding APC (from UniProt P25054), the negative-log Ki (pKi) in data set [1] was 4.77; in data set [2], 4.31; in data set [3], less than 3.52; in data set [4], less than 3.52. Besides, in the data set with Asef (Homo sapiens), the negative-log Kd (pKd) is 7.75.
